From patent publication US20190216947A1

Legend:
Human CD47 (human) = Human CD47 (human) (UniProt Q08722); assay: SPR
Mouse CD47 (mouse) = Mouse CD47 (mouse) (UniProt Q61735); assay: SPR
Mouse CD47 (mouse), sequence (Q61735 19-140 limits assumed): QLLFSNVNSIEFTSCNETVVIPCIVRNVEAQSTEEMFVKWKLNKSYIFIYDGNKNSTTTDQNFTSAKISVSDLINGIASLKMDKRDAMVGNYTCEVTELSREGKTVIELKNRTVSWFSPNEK

Human CD47 (human), sequence (Q08722 19-139 limits assumed): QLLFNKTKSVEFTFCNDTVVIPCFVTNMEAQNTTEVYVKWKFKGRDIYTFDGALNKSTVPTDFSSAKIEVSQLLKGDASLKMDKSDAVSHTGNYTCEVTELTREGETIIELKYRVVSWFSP

- Kd (Human CD47 (human)): 0.0054 nM
- koff (Human CD47 (human)): 3.7e-05 s⁻¹
- kon (Human CD47 (human)): 7e+06 M⁻¹ s⁻¹
- Kd (Mouse CD47 (mouse)): 6.2 nM
- koff (Mouse CD47 (mouse)): 0.011 s⁻¹
- kon (Mouse CD47 (mouse)): 1.8e+06 M⁻¹ s⁻¹
Substance: monomeric SIRPα (mSIRPα) (receptor)
